Measured values published in paper PMC3581365 (The Journal of Biological Chemistry, 2013).

T1: HP0892 fused with His tag at the C terminus (HP0892-His) (H. pylori 26695, UniProt O25552 1-90)
T1 sequence: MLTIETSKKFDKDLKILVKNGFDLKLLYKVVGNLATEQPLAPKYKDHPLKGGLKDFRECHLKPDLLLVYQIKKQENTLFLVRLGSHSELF

T2: HP0893 expressed as a C-terminal His tag fusion (HP0893-His) (H. pylori 26695, UniProt O25553 1-95)
T2 sequence (looked up): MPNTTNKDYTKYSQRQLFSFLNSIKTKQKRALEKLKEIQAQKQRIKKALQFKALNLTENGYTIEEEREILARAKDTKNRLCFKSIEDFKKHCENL

B1: HP0893Ctp, 30-residue peptide corresponding to the C-terminal region (Glu-66 to Leu-95) of HP0893 (peptide, UniProt O25553 66-95, looked up)
peptide: EREILARAKDTKNRLCFKSIEDFKKHCENL
B2: HP0892 without any purification tag or non-native residues (natural protein, H. pylori 26695, UniProt O25552 1-90, looked up)
chain: T1 sequence

Legend:
[1] = target: T1, HP0892 fused with His tag at the C …; assay: NMR titration
[2] = target: T2, HP0893 expressed as a C-terminal His …; assay: pull-down

Binder	stoichiometry N [1]	stoichiometry N [2]
B1	1	
B2		1
